Blank lines part the entries; values can stand above or below the molecule they belong to.
Assays:
[1] = biological target: FUS 6F-G variant (Phe residues of the RBD substituted to Gly) (UniProt P35637); assay: DLS; conditions: 10 µM FUS (RBD, F/Y-G/S), read off a plot
[2] = biological target: FUS 6Y-S variant (Tyr residues of the RBD substituted to Ser) (UniProt P35637); assay: DLS; conditions: 10 µM FUS (RBD, F/Y-G/S), read off a plot
[3] = biological target: FUS(Y-S) with 18 Tyr of the PLCD substituted to Ser (UniProt P35637); assay: DLS; conditions: 10 µM FUS (PLD, Y-S), read off a plot
[4] = biological target: FUS(Y-S) with 10 Tyr of the PLCD substituted to Ser (UniProt P35637); assay: DLS; conditions: 10 µM FUS (PLD, Y-S), read off a plot
[5] = biological target: FUS(R-G) with 24 Arg of the RBD substituted to Gly (UniProt P35637); assay: DLS; conditions: 10 µM FUS (RBD, R-G), read off a plot
[6] = biological target: FUS (10D/4E-G) variant (10 Asp and 4 Glu of the RBD substituted to Gly) (UniProt P35637); assay: DLS; conditions: 250 nM FUS (RBD, D/E-G), read off a plot
[7] = biological target: FUS(R-K) with 24 Arg of the RBD substituted to Lys (UniProt P35637); assay: DLS; conditions: read off a plot
[8] = biological target: FUS(Y-S) with 27 Tyr of the PLCD substituted to Ser (UniProt P35637); assay: DLS; conditions: 10 µM FUS (PLD, Y-S), read off a plot
[9] = biological target: T1, SNAP-tagged FUS (Fused in Sarcoma), P35637; assay: nanoparticle tracking analysis (NTA); sub-saturated solutions of one protein in 100 mM KCl and 100 mM KGlu, 25 °C, recorded 6 min after preparation; abundance of mesoscale clusters; conditions: remark: other sources report otherwise
T1 chain: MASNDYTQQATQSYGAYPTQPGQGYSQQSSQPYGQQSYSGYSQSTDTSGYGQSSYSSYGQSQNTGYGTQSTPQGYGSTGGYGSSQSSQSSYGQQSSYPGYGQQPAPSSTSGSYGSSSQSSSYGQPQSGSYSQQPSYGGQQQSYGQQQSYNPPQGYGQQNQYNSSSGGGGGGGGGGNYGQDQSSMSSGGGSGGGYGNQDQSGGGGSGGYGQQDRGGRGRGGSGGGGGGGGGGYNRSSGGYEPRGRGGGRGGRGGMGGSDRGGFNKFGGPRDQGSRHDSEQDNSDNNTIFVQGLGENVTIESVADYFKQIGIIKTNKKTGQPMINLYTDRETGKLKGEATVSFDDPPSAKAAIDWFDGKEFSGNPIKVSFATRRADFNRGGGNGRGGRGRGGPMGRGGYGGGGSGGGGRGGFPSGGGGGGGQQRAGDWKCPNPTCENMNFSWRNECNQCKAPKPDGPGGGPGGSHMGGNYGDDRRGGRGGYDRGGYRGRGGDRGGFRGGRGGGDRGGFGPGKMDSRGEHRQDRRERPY

Molecule: wild-type FUS 6F-G
response ([1]; KCl buffer): 1.2 Mcps
response ([1]; KGlu buffer): 1.7 Mcps

Molecule: wild-type FUS 6Y-S
response ([2]; KCl buffer): 0.49 Mcps
response ([2]; KGlu buffer): 1.4 Mcps

Molecule: wild-type FUS 18Y-S
response ([3]; KCl buffer): 0.79 Mcps
response ([3]; KGlu buffer): 1.3 Mcps

Molecule: wild-type FUS 10Y-S
response ([4]; KCl buffer): 0.81 Mcps
response ([4]; KGlu buffer): 1.9 Mcps

Molecule: wild-type FUS 10D/4E-G
response ([6]; KCl buffer): 3.2 Mcps
response ([6]; KGlu buffer): 3.8 Mcps

Molecule: wild-type FUS 27Y-S
response ([8]; KCl buffer): 0.74 Mcps
response ([8]; KGlu buffer): 0.86 Mcps

Now from value to molecule:

response ([5]; KCl buffer): 1.2 Mcps
response ([5]; KGlu buffer): 1.8 Mcps
Molecule: wild-type FUS 24R-G

response ([7]; 1 µM FUS (24R-K), KCl buffer): 0.13 Mcps
response ([7]; 1 µM FUS (24R-K), KGlu buffer): 1.9 Mcps
response ([7]; 2 µM FUS (24R-K), KCl buffer): 0.32 Mcps
response ([7]; 2 µM FUS (24R-K), KGlu buffer): 2.4 Mcps
response ([7]; 3 µM FUS (24R-K), KCl buffer): 1.1 Mcps
response ([7]; 3 µM FUS (24R-K), KGlu buffer): 3.8 Mcps
response ([7]; 4 µM FUS (24R-K), KCl buffer): 1.4 Mcps
response ([7]; 4 µM FUS (24R-K), KGlu buffer): 3.9 Mcps
Molecule: wild-type FUS 24R-K

relative abundance of mesoscale clusters (100 mM KCl) [9]: 0.2 to 0.4%
B1: SNAP-tagged FUS (Fused in Sarcoma), P35637 1-526 (natural protein)
chain: MASNDYTQQATQSYGAYPTQPGQGYSQQSSQPYGQQSYSGYSQSTDTSGYGQSSYSSYGQSQNTGYGTQSTPQGYGSTGGYGSSQSSQSSYGQQSSYPGYGQQPAPSSTSGSYGSSSQSSSYGQPQSGSYSQQPSYGGQQQSYGQQQSYNPPQGYGQQNQYNSSSGGGGGGGGGGNYGQDQSSMSSGGGSGGGYGNQDQSGGGGSGGYGQQDRGGRGRGGSGGGGGGGGGGYNRSSGGYEPRGRGGGRGGRGGMGGSDRGGFNKFGGPRDQGSRHDSEQDNSDNNTIFVQGLGENVTIESVADYFKQIGIIKTNKKTGQPMINLYTDRETGKLKGEATVSFDDPPSAKAAIDWFDGKEFSGNPIKVSFATRRADFNRGGGNGRGGRGRGGPMGRGGYGGGGSGGGGRGGFPSGGGGGGGQQRAGDWKCPNPTCENMNFSWRNECNQCKAPKPDGPGGGPGGSHMGGNYGDDRRGGRGGYDRGGYRGRGGDRGGFRGGRGGGDRGGFGPGKMDSRGEHRQDRRERPY
modifications: here or on the partner: AF488 or AF647 label on the copies used in smFRET and FCS (FUS-SNAP-AF488, FUS-SNAP-AF647); unlabelled in DLS and NTA; AF488 or AF647 label on the copies used in smFRET and FCS (FUS-SNAP-AF488, FUS-SNAP-AF647); unlabelled in DLS and NTA

Reference: paper PMC11116469
